Laboratory results published in US20250049953A1, “TREATMENT AND METHOD FOR INHIBITING LATE NA CURRENT” (THE TRUSTEES OF COLUMBIA UNIVERSITY IN THE CITY OF NEW YORK, priority 2022, published 2025).

Tests used:
HEK293 cells = format: cell-based; details: up to 10 μM FixR-cpp, 2 hours
Description: The peptide encoding FixR-cpp was chemically synthesized by Genscript (98% purity) to contain the cell permeating viral TAT sequence in the amino-terminus: […] (SEQ ID NO. 2). The amino terminus of the peptide contained a FITC fluorophore to visualize cell uptake. The peptide was resuspended in DMSO. Flow cytometric assays were performed to quantify FixR cellular uptake in both HEK293 cells and freshly dissociated aMVM. HEK293 cells were cultured in 12 well plates and incubated with different concentrations of FixR-cpp for 2 hours and stained for cell death detection using LIVE/DEAD™ Fixable Far Red Dead Cell Stain Kit (ThermoFisher Scientific, L10120). Similarly, non-TG and IQ/AA^tg freshly dissociated aMVM were incubated with various concentrations of FixR-cpp for 2 hours in Tyrode's solution (138 mM NaCl, 4 mM KCl, 1 mM MgCl2, 10 mM HEPES (pH 7.4 using NaOH), 0.2 mM NaHPO4 5 mM D-glucose, 1 mM CaCl2). For cellular uptake measurements, we utilized an LSR II (BD Biosciences) flow cytometer equipped with 405 nm, 488 nm, and 633 nm lasers for excitation and 18 different emission channels. Forward and side scatter signals were detected and used to gate for single and healthy cells. […] Histograms from the Fluorescein 5(6)-isothiocyanate (FITC) and Allophycocyanin (APC) channels for the single-cell population were obtained and analyzed using FlowJo (version X, FlowJo LLC).

NaV1.5 = test: Late Na current inhibition across NaV1.5 channelopathic mutations and channel phosphorylation; format: cell-based, human; details: various disease linked NaV1.5 channelopathic mutations and channel phosphorylation, in nearly all cases
Description: HEK293 cells (ATCC CRL1573) were cultured on glass coverslips in 60-mm dishes and transfected using the Ca^2+-phosphate method as previously described. For electrophysiology experiments, we co-transfected 4-8 μg of cDNA encoding the desired channel variant with 4 μg of YFP, and 1 μg of simian virus 40 T-antigen. For experiments evaluating effect of FHF, we transfected the relevant FHF variant at 1:1 ratio as the α-subunit. For experiments considering competition between FHF1/2 isoforms, we co-transfected FHF1B and FHF2S variants at specified ratios (ranging from 1:1 to 1:10). The culture media was replaced following 4 h of transfection. Electrophysiology recordings were then performed at room temperature 1-2 days following transfection.
Multichannel records were obtained in the on-cell configuration with either HEK293 cells or in aMVM as in our previous study. The pipette contained (in mM): 140 NaCl; 10 HEPES; 0.5 CaCl2; at 300 mOsm, adjusted with tetraethylammonium methanesulfonate; and pH 7.4 adjusted with tetraethylammonium hydroxide. To zero membrane potential, the bath contained (in mM): 132 K^+-glutamate; 5 KCl; 5 NaCl; 3 MgCl; 2 EGTA; 10 glucose; 20HEPES; at 300 mOsm adjusted with glucose; and pH 7.4 adjusted with NaOH. Data were acquired at room temperature using the integrating mode of an Axopatch 200A amplifier (Axon Instruments, Molecular Devices). […]

| Substance | cell death (HEK293 cells) | inhibition of INa,L (NaV1.5) |
| --- | --- | --- |
| FixR-cpp: FixR fused to HIV-1 TAT transduction domain, YGRKKRRQRRRAAAIASSLIRQKRQARESNSERVSASKRRSSPSKG (SEQ ID NO: 2) | Minimal cell death |  |
| FixR: minimal 39-amino-acid FHF1A amino-terminal effector domain, MAAAIASSLIRQKRQARESNSDRVSASKRRSSPSKDGRS (SEQ ID NO: 4), expressed as peptide |  | ~10 fold |
